Legend:
[1] = molecular target: hCTLA4 (human, UniProt P16410 36-161); assay: ELISA
[2] = molecular target: hPDL1 (human, UniProt Q9NZQ7 19-238); assay: ELISA
[3] = molecular target: T1, human PSMA on cells (Cho-hPSMA, CHO-K1 cells overexpressing full-length human PSMA) (human, UniProt Q04609 1-750); assay: cell ELISA (OD450), Cho-hPSMA cells
T1 construct: whole, on cells; also called cell surface PSMA; PSMA-expressing Lncap cells
Description: Experiment 2: Cells were cultured and inoculated onto a cell plate using the same method as in Experiment 1. The antibodies were serially diluted, and the antibody solutions were added to the cell plate at 100 μL/well. The plate was incubated at 4° C. for 1 h and then washed. An HRP-Goat Anti-human IgG (H+L) secondary antibody dilution (1:8000) was added to the cell plate at 100 μL/well, and the plate was incubated at 4° C. for 1 h and then washed by centrifugation. After color development with TMB, the reaction was stopped with 0.1 M sulfuric acid, and OD450 values were measured.

[4] = molecular target: T2, human PSMA antigen (R&D SYSTEM, 4234-ZN-010) (human, UniProt Q04609 44-750); assay: ELISA, plate-bound PSMA antigen
T2 construct: bought antigen
T2 sequence (Q04609 44-750 limits assumed): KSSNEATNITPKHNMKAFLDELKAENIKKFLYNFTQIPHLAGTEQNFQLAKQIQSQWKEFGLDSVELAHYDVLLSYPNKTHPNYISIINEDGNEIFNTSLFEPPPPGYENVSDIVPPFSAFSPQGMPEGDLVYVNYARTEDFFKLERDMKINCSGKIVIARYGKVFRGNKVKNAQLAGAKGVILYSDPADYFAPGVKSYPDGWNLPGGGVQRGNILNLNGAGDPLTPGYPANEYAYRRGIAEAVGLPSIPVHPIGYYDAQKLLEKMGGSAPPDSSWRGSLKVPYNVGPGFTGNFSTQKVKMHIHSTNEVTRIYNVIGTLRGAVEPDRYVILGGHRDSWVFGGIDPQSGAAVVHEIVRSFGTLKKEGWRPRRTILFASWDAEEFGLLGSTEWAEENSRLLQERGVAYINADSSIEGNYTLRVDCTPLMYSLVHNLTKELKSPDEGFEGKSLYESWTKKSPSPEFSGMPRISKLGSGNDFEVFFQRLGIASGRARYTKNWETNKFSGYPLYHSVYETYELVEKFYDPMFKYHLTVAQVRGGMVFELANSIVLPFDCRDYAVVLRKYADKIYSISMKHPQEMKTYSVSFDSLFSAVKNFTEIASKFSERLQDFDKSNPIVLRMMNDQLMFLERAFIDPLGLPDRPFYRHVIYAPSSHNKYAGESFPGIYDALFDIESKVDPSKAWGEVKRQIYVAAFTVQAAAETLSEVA
Description: To test the ability of the PSMA-targeting humanized antibodies of the present disclosure to bind to PSMA antigen, the ELISA method was used in this test example to measure the binding of the PSMA-targeting humanized antibodies to human PSMA antigen (purchased from R&D SYSTEM, 4234-ZN-010). The specific steps are as follows: A 96-well plate was coated with PSMA antigen at 1 μg/well and placed at 4° C. overnight. After the supernatant was discarded, the plate was blocked with 5% skim milk for 2 h. Different concentrations of humanized antibodies were prepared using 1% BSA. The initial concentration was 10 μg/mL and was serially diluted 4-fold to obtain 12 concentrations. After the blocked 96-well plate was washed twice, the […] was added, and the plate was incubated at 4° C. for 1 h. After four washes, the plate was incubated with Strepidation-HRP secondary antibody (1:10,000) at 4° C. for 1 h. After color development with TMB, the reaction was stopped with 0.1 M sulfuric acid.

hPDL1, sequence (Q9NZQ7 19-238 limits assumed): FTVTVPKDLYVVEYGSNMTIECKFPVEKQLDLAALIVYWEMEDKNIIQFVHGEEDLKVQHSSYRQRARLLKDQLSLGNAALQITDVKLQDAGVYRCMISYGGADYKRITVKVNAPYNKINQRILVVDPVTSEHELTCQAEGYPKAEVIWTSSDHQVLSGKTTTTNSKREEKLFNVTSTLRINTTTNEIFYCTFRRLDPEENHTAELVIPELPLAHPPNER
hCTLA4, sequence (P16410 36-161 limits assumed): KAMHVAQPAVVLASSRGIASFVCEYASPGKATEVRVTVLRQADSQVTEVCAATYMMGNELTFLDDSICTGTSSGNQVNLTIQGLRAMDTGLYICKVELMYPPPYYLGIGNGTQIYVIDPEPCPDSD
T1 sequence (Q04609 whole entry): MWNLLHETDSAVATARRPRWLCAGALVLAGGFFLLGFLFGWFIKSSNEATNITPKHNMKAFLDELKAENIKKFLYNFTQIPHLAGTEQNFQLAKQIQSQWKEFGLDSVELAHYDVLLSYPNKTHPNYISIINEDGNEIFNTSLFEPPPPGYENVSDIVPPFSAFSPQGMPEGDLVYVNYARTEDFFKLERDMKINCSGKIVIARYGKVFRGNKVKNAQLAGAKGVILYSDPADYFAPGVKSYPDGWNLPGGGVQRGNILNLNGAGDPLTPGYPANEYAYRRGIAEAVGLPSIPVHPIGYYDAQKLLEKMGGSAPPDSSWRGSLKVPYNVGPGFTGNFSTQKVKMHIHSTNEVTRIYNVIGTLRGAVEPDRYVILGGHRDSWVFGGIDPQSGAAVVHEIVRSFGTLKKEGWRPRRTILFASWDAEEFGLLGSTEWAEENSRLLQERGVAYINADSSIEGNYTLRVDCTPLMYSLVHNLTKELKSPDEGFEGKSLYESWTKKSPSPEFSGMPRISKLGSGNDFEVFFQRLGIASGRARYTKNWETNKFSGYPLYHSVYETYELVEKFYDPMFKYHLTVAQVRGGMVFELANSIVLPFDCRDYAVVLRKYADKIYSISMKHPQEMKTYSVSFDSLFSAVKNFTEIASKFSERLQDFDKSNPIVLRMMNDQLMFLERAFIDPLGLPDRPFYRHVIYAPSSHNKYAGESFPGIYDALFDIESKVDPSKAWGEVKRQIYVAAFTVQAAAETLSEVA

B1: PL-12 (bispecific antibody)
chain 1: not shown
chain 2: DIVLTQSPASLAVSPGQRATITCRASESVSIHGTHLMHWYQQKPGQPPKLLIYAASKLESGVPARFSGSGSGTDFTLTINPVEAEDTANYYCQQSFEDPLTFGQGTKLEIKRTVASGIPPKIECLPIDISIDEGKCLTVASAFTGEPTPEVTWSTGGRKIHSQEQGRFHIENTDDSTTLTIKDVQKQDGGLYTLTLRNEFGSDSATVNIHIRSI
chain 3: not shown
chain 4: not shown
EC50 [1]: 8 nM | EC50 [2]: 0.5 nM

B2: PL-13 (bispecific antibody)
chain 1: not shown
chain 2: DIVLTQSPASLAVSPGQRATITCRASESVSIHGTHLMHWYQQKPGQPPKLLIYAASKLESGVPARFSGSGSGTDFTLTINPVEAEDTANYYCQQSFEDPLTFGQGTKLEIKRTVASGIPPKIECLPIDISIDEGKVLTVASCFTGEPTPEVTWSTGGRKIHSQEQGRFHIENTDDSTTLTIKDVQKQDGGLYTLTLRNEFGSDSATVNIHIRSI
chain 3: not shown
chain 4: not shown
EC50 [1]: 4.4 nM | EC50 [2]: 0.5 nM

B3: PL-14 (bispecific antibody)
chain 1: not shown
chain 2: DIVLTQSPASLAVSPGQRATITCRASESVSIHGTHLMHWYQQKPGQPPKLLIYAASKLESGVPARFSGSGSGTDFTLTINPVEAEDTANYYCQQSFEDPLTFGQGTKLEIKRTVASGIPPKIECLPIDISIDEGKVLTVASAFTGEPTPEVTWSTGGRKIHSQEQGRFHIENTDDSTTLTIKDVQKQDGGLYTLTLRNEFGSDSATVNIHIRSI
chain 3: not shown
chain 4: not shown
EC50 [1]: 6 nM | EC50 [2]: 1.3 nM

B4: PL-15 (bispecific antibody)
chain 1: not shown
chain 2: DIVLTQSPASLAVSPGQRATITCRASESVSIHGTHLMHWYQQKPGQPPKLLIYAASKLESGVPARFSGSGSGTDFTLTINPVEAEDTANYYCQQSFEDPLTFGQGTKLEIKRTVASGIPPKIECLPIDISIDEGKCLTVASAFTGEPTPEVTWSTGGRKIHSQEQGRFHIENTDDSTTLTIKDVQKQDGGLYTLTLRNEFGSDSATVNIHIRSI
chain 3: not shown
chain 4: not shown
EC50 [1]: 3.2 nM | EC50 [2]: 1.4 nM

B5: PL-17 (bispecific antibody)
chain 1: not shown
chain 2: DIVLTQSPASLAVSPGQRATITCRASESVSIHGTHLMHWYQQKPGQPPKLLIYAASKLESGVPARFSGSGSGTDFTLTINPVEAEDTANYYCQQSFEDPLTFGQGTKLEIKRTVASGIPPKIECLPIDISIDEGKVLTVASAFTGEPTPEVTWSTGGRKIHSQEQGRFHIENTDDSTTLTIKDVQKQDGGLYTLTLRNEFGSDSATVNIHIRSI
chain 3: not shown
chain 4: not shown
EC50 [1]: 6.2 nM | EC50 [2]: 1.4 nM

B6: PL-18 (bispecific antibody)
chain 1: not shown
chain 2: DIVLTQSPASLAVSPGQRATITCRASESVSIHGTHLMHWYQQKPGQPPKLLIYAASKLESGVPARFSGSGSGTDFTLTINPVEAEDTANYYCQQSFEDPLTFGQGTKLEIKRTVASGIPPKIECLPIDISIDEGKCLTVASAFTGEPTPEVTWSTGGRKIHSQEQGRFHIENTDDSTTLTIKDVQKQDGGLYTLTLRNEFGSDSATVNIHIRSI
chain 3: not shown
chain 4: not shown
EC50 [1]: 6.7 nM | EC50 [2]: 1.6 nM

B7: PL-19 (bispecific antibody)
chain 1: not shown
chain 2: DIVLTQSPASLAVSPGQRATITCRASESVSIHGTHLMHWYQQKPGQPPKLLIYAASKLESGVPARFSGSGSGTDFTLTINPVEAEDTANYYCQQSFEDPLTFGQGTKLEIKRTVASGIPPKIECLPIDISIDEGKVLTVASCFTGEPTPEVTWSTGGRKIHSQEQGRFHIENTDDSTTLTIKDVQKQDGGLYTLTLRNEFGSDSATVNIHIRSI
chain 3: not shown
chain 4: not shown
EC50 [1]: 6.5 nM | EC50 [2]: 1.6 nM

B8: hu50H1L2 (antibody, human IgG1, kappa)
heavy: not shown
light: DVFMTQSPLSLPVTPGEPASISCRSSQSILHSNGNTYLEWYLQKPGQSPQLLIYRVSNRFSGVPDRFSGSGSGTDFTLKISRVEAEDVGVYYCFQGLHVPPTFGQGTKLEIKRTVAAPSVFIFPPSDEQLKSGTASVVCLLNNFYPREAKVQWKVDNALQSGNSQESVTEQDSKDSTYSLSSTLTLSKADYEKHKVYACEVTHQGLSSPVTKSFNRGEC
notes: also called hu50L2H1
EC50 [3]: 0.0603 µg/mL | EC50 [4]: 0.0421 µg/mL | Top (maximum absorbance) [4]: 1.3 absorbance

B9: hu71H3L2 (antibody, human IgG1, kappa)
heavy: not shown
light: DVVVTQTPLSLPVTPGEPASISCRSSQSLVHSYGNTYLHWYLQKPGQSPQLLIYKVSNRFSGVPDRFSGSGSGTDFTLKISRVEAEDVGVYYCSQTTHVPWTFGGGTKVEIKRTVAAPSVFIFPPSDEQLKSGTASVVCLLNNFYPREAKVQWKVDNALQSGNSQESVTEQDSKDSTYSLSSTLTLSKADYEKHKVYACEVTHQGLSSPVTKSFNRGEC
notes: also called hu71L2H3
EC50 [3]: 0.112 µg/mL | EC50 [4]: 0.0589 µg/mL | Top (maximum absorbance) [4]: 0.952 absorbance

B10: PL-1 (bispecific antibody)
chain 1: not shown
chain 2: DIVLTQSPASLAVSPGQRATITCRASESVSIHGTHLMHWYQQKPGQPPKLLIYAASKLESGVPARFSGSGSGTDFTLTINPVEAEDTANYYCQQSFEDPLTFGQGTKLEIKGGGGSGIPPKIECLPIDISIDEGKVLTVASAFTGEPTPEVTWSTGGRKIHSQEQGRFHIENTDDLTTLIIKDVQKQDGGLYTLTLRNEFGSDSATVNIHIRSI
chain 3: not shown
chain 4: not shown
EC50 [1]: 16.5 nM | EC50 [2]: 1.6 nM

B11: PL-2 (bispecific antibody)
chain 1: not shown
chain 2: DIVLTQSPASLAVSPGQRATITCRASESVSIHGTHLMHWYQQKPGQPPKLLIYAASKLESGVPARFSGSGSGTDFTLTINPVEAEDTANYYCQQSFEDPLTFGQGTKLEIKGGGGSGIPPKIECLPIDISIDEGKVLTVASAFTGEPTPEVTWSTGGRKIHSQEQGRFHIENTDDSTTLTIKDVQKQDGGLYTLTLRNEFGSDSATVNIHIRSI
chain 3: not shown
chain 4: not shown
EC50 [1]: 8 nM | EC50 [2]: 0.5 nM

B12: PL-3 (bispecific antibody)
chain 1: not shown
chain 2: DIVLTQSPASLAVSPGQRATITCRASESVSIHGTHLMHWYQQKPGQPPKLLIYAASKLESGVPARFSGSGSGTDFTLTINPVEAEDTANYYCQQSFEDPLTFGQGTKLEIKGGGGSGIPPKIECLPIDISIDEGKCLTVASAFTGEPTPEVTWSTGGRKIHSQEQGRFHIENTDDSTTLTIKDVQKQDGGLYTLTLRNEFGSDSATVNIHIRSI
chain 3: not shown
chain 4: not shown
EC50 [1]: 7.9 nM | EC50 [2]: 0.6 nM

B13: PL-4 (bispecific antibody)
chain 1: not shown
chain 2: DIVLTQSPASLAVSPGQRATITCRASESVSIHGTHLMHWYQQKPGQPPKLLIYAASKLESGVPARFSGSGSGTDFTLTINPVEAEDTANYYCQQSFEDPLTFGQGTKLEIKGGGGSGIPPKIECLPIDISIDEGKVLTVASCFTGEPTPEVTWSTGGRKIHSQEQGRFHIENTDDSTTLTIKDVQKQDGGLYTLTLRNEFGSDSATVNIHIRSI
chain 3: not shown
chain 4: not shown
EC50 [1]: 6.5 nM | EC50 [2]: 0.7 nM

B14: PL-5 (bispecific antibody)
chain 1: not shown
chain 2: DIVLTQSPASLAVSPGQRATITCRASESVSIHGTHLMHWYQQKPGQPPKLLIYAASKLESGVPARFSGSGSGTDFTLTINPVEAEDTANYYCQQSFEDPLTFGQGTKLEIKGGGGSGIPPKIECLPIDISIDEGKVLTVASAFTGEPTPEVTWSTGGRKIHSQEQGRFHIENTDDSTTLTIKDVQKQDGGLYTLTLRNEFGSDSATVNIHIRSI
chain 3: not shown
chain 4: not shown
EC50 [1]: 6.7 nM | EC50 [2]: 0.7 nM

B15: PL-6 (bispecific antibody)
chain 1: not shown
chain 2: DIVLTQSPASLAVSPGQRATITCRASESVSIHGTHLMHWYQQKPGQPPKLLIYAASKLESGVPARFSGSGSGTDFTLTINPVEAEDTANYYCQQSFEDPLTFGQGTKLEIKGGGGSGIPPKIECLPIDISIDEGKCLTVASAFTGEPTPEVTWSTGGRKIHSQEQGRFHIENTDDSTTLTIKDVQKQDGGLYTLTLRNEFGSDSATVNIHIRSI
chain 3: not shown
chain 4: not shown
EC50 [1]: 5.3 nM | EC50 [2]: 0.8 nM

B16: PL-7 (bispecific antibody)
chain 1: not shown
chain 2: DIVLTQSPASLAVSPGQRATITCRASESVSIHGTHLMHWYQQKPGQPPKLLIYAASKLESGVPARFSGSGSGTDFTLTINPVEAEDTANYYCQQSFEDPLTFGQGTKLEIKGGGGSGIPPKIECLPIDISIDEGKVLTVASCFTGEPTPEVTWSTGGRKIHSQEQGRFHIENTDDSTTLTIKDVQKQDGGLYTLTLRNEFGSDSATVNIHIRSI
chain 3: not shown
chain 4: not shown
EC50 [1]: 7.3 nM | EC50 [2]: 0.5 nM

B17: PL-8 (bispecific antibody)
chain 1: not shown
chain 2: DIVLTQSPASLAVSPGQRATITCRASESVSIHGTHLMHWYQQKPGQPPKLLIYAASKLESGVPARFSGSGSGTDFTLTINPVEAEDTANYYCQQSFEDPLTFGQGTKLEIKGGGGSGIPPKIECLPIDISIDEGKVLTVASAFTGEPTPEVTWSTGGRKIHSQEQGRFHIENTDDSTTLTIKDVQKQDGGLYTLTLRNEFGSDSATVNIHIRSI
chain 3: not shown
chain 4: not shown
EC50 [1]: 14.5 nM | EC50 [2]: 1.4 nM

B18: PL-9 (bispecific antibody)
chain 1: not shown
chain 2: DIVLTQSPASLAVSPGQRATITCRASESVSIHGTHLMHWYQQKPGQPPKLLIYAASKLESGVPARFSGSGSGTDFTLTINPVEAEDTANYYCQQSFEDPLTFGQGTKLEIKGGGGSGIPPKIECLPIDISIDEGKCLTVASAFTGEPTPEVTWSTGGRKIHSQEQGRFHIENTDDSTTLTIKDVQKQDGGLYTLTLRNEFGSDSATVNIHIRSI
chain 3: not shown
chain 4: not shown
EC50 [1]: 5.5 nM | EC50 [2]: 0.6 nM

B19: PL-10 (bispecific antibody)
chain 1: not shown
chain 2: DIVLTQSPASLAVSPGQRATITCRASESVSIHGTHLMHWYQQKPGQPPKLLIYAASKLESGVPARFSGSGSGTDFTLTINPVEAEDTANYYCQQSFEDPLTFGQGTKLEIKGGGGSGIPPKIECLPIDISIDEGKVLTVASCFTGEPTPEVTWSTGGRKIHSQEQGRFHIENTDDSTTLTIKDVQKQDGGLYTLTLRNEFGSDSATVNIHIRSI
chain 3: not shown
chain 4: not shown
EC50 [1]: 6.9 nM | EC50 [2]: 0.6 nM
